Results on four substances are retold here after patent US20240240159A1.

Common to all, as to test: cell-based or functional assay
The target of test [1] is 358BP NTproBNP epitope-grafted FAD-GDH.
Test [2] addresses 341BP NTproBNP epitope-grafted FAD-GDH.
In test [3] the target is Purified NTproBNP antigen (UniProt P16860).
Test [4] has as its target 358HNL-H3 epitope-grafted FAD-GDH.
Test [5] deals with 358HNL-H1 epitope-grafted FAD-GDH.
For test [6], the target named is V5 peptide, Sigma (cat #V7754-4MG).
Test [7] concerns the target 341V5 epitope-grafted FAD-GDH.

Chain of 358BP NTproBNP epitope-grafted FAD-GDH (chain, as listed by the source): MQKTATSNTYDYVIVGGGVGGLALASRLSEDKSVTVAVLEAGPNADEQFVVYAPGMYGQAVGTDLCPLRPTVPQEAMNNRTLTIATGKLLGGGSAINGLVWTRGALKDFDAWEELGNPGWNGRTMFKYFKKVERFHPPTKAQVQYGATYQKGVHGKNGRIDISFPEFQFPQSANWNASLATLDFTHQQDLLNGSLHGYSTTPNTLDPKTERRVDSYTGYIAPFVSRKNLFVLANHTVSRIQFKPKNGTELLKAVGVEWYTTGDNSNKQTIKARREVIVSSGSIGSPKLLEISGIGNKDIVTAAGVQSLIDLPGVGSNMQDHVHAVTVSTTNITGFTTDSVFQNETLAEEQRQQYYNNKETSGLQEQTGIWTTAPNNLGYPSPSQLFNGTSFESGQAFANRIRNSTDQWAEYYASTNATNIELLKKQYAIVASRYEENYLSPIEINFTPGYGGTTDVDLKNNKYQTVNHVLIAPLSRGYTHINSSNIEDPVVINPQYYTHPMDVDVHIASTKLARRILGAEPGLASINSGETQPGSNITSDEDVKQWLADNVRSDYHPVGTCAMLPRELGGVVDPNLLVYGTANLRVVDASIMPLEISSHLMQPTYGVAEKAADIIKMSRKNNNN
Chain of UniProt P16860 (P16860 27-134 limits assumed): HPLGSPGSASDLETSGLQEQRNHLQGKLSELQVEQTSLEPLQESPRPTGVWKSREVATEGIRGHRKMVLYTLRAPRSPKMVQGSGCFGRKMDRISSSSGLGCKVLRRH
Chain of 341BP NTproBNP epitope-grafted FAD-GDH (chain, as listed by the source): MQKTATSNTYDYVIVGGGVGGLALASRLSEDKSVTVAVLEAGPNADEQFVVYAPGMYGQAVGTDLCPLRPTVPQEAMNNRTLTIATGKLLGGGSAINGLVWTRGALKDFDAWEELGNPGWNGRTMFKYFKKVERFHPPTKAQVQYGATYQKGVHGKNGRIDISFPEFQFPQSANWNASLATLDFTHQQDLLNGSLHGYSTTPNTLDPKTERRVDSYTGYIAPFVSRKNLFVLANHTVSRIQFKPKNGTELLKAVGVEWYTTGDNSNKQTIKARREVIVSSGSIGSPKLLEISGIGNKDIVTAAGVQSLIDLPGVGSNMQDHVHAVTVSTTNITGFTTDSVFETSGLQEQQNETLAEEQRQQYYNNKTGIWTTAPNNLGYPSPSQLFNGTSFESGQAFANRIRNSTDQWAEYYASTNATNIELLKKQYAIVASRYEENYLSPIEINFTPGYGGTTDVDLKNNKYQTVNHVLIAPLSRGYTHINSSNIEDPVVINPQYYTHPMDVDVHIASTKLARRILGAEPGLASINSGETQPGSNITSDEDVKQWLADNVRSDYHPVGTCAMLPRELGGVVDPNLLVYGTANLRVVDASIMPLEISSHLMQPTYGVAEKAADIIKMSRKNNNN
Chain of 358HNL-H3 epitope-grafted FAD-GDH (chain, as listed by the source): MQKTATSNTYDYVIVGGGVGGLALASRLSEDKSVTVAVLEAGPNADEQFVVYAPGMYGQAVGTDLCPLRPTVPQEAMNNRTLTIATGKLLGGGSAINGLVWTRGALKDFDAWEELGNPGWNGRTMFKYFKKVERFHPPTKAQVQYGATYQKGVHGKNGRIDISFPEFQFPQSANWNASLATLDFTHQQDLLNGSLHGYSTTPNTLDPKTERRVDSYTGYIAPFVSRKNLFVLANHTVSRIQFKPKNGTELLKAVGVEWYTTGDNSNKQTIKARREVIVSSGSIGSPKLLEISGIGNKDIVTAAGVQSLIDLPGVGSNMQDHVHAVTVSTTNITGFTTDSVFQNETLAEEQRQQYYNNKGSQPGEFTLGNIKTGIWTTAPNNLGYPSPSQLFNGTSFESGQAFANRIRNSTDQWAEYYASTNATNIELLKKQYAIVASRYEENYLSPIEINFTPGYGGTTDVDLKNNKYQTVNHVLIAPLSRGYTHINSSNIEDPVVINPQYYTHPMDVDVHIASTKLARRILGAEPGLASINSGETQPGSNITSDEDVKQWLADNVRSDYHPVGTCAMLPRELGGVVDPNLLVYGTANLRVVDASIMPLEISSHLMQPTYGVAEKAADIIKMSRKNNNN
Chain of 358HNL-H1 epitope-grafted FAD-GDH (chain, as listed by the source): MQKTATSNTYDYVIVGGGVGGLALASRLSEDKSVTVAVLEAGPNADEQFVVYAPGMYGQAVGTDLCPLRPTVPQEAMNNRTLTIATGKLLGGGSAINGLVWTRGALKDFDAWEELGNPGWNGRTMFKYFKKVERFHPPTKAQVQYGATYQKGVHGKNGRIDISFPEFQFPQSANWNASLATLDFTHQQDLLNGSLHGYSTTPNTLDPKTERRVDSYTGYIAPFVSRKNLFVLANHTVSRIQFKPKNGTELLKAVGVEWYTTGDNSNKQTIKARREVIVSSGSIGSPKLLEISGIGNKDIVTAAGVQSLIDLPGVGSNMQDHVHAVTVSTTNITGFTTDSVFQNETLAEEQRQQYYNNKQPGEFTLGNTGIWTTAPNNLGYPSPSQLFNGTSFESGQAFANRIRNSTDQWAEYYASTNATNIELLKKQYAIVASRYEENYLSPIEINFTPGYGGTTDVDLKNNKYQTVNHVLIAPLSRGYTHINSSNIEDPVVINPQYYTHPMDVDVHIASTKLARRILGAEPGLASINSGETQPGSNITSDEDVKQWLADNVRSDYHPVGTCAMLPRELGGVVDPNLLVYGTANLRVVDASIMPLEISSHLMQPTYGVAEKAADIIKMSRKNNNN

In the case of “Mouse α-NTproBNP antibody, Biorad (cat #MCA2641)”, the percent inhibition of GDH activity, 500 nM antibody stood at 7% in test [1] and 25% in test [2]. In addition, the percent inhibition of 341BP / 358BP by 500 nM antibody in the presence of 5 µM NTproBNP antigen in test [3] was 0%.
In test [1], “Mouse α-NTproBNP antibody, Novus (cat #NB200-439)” showed a percent inhibition of GDH activity, 500 nM antibody of 7%. For the same substance, the percent inhibition by 500 nM Novus antibody in the presence of 5 µM NTproBNP antigen in test [3] turned out to be 0%.
With “Rabbit α-HNL mAb, Abcam (cat #ab206427) (antibody)”, the percent inhibition of GDH activity, 25 nM antibody in test [4] is 60%; in test [5], 20%.
In the case of “α-V5 antibody, mouse monoclonal, Sigma (cat #V8012-50UG)”, the percent inhibition of 341V5 by 300 nM α-V5 antibody in the presence of 3 µM V5 peptide in test [6] worked out at 9%. Further, the percent inhibition of GDH activity, 300 nM antibody in test [7] worked out at 50%.
